From patent US20230331821A1 (VIR BIOTECHNOLOGY, published 2023) come the findings set out here.

Assay [1] concerns the target SARS1 Spike. In words: ELISA, antigen coated on the plate, OD 405 nm.
Assay [2] deals with SARS1 Spike. In words: ELISA, antigen coated on the plate, OD 405 nm. This is another data set of the same source. In general terms: An ELISA detects its analyte on a solid surface through an enzyme-linked reagent.

Read-outs that look alike come from different tables or passages of the source.

B1: S110 (antibody, V domains shown)
VH: QVQLVESGGGLVQAGGSLRLSCAASGRTFSSAGMAWFRQAPGKEREFVATSNWNGGDTDYADSVKGRFTISRDNAKNTVYLQMNNLKPEDTAVYYCAAHLQKYGGDYYARIWGQGTQVTVS
By EC50 (read off the curve) is commonly meant the concentration giving half of the maximal effect. For B1, the concentration giving a half-maximal response (EC50 (read off the curve)) with SARS1 Spike [1] and with SARS1 Spike [2] was approximately 0.03 µg/mL each time.
